Ends that are not written are not given here. * marks the point of attachment. Biotin = O=C1N[C@H]2[C@H](CS[C@H]2CCCCC(=O)*)N1
B1: C4-aa^1355 monoclonal antibody (antibody, V domains shown)
VH: QVTLKESGPGILQPSQTLSLTCSFSGFSLTTYNIGVGWIRQSSGKGLEWLAHIWYNDIKYYNTALKSRLTISKDTSNNQVFLKIASVVTADTATYYCARLRPDSFDYWGQGTTLTVSS
VL: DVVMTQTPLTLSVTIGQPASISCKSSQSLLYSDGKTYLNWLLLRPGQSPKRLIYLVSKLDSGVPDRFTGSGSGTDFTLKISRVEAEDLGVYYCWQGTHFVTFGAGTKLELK
notes: It was SULFO-TAG labelled in the ECLIA; also called the monoclonal antibody
B2: Selection peptide MGNTGPTGAV (peptide)
peptide: MGNTGPTGAV
notes: also called target peptide

What was measured:
[1] = target: B1; assay: competitive C4-aa^1355 ECLIA (peptide in solution against the biotinylated coating peptide)
Description: The target sequence was used as the selection peptide ([…] (SEQ ID No. 1)). The immunogenic peptide ([…]-GGC-KLH) was generated by covalently linking the selection peptide to Keyhole Limpet Hemocyanin (KLH) carrier protein with addition of glycine and cysteine residues in between to ensure right linking. A biotinylated peptide ([…]-K-biotin) was used as a coating peptide. The specificity of the antibody was tested by including an elongated peptide ([…] (SEQ ID No. 7)), a truncated peptide ([…] (SEQ ID No. 3)), a non-sense selection peptide ([…] (SEQ ID No. 18)) and a non-sense coating peptide ([…]-K-biotin). To test for potential cross-reactivity to other ECM proteins with similar sequences, three peptides with one amino acid mismatch at either position one ([…] (SEQ ID No. 6)), three ([…] (SEQ ID No. 4)) or four ([…] (SEQ ID No. 5)) from the N-terminal were included in the specificity test. Antibody specificity was calculated as percentage of signal inhibition of two-fold diluted peptides.
During assay development, an optimal incubation buffer, time, temperature and concentrations of antibody and coating peptide were determined and the finalized competitive C4-aa¹³⁵⁵ ECLIA protocol was as follows: A MSD GOLD 96-well streptavidin pre-coated plate (Meso Scale Discovery, cat. no. L15SA-1) was incubated with 150 μl/well blocking buffer (10 mM phosphate-buffered saline (PBS) with bovine serum albumin (BSA) (5% w/v) and bronidox (0.36% v/v), 8 g/L NaCl, pH 7.4) for 60 minutes at 20° C. with shaking (300 rpm) in darkness. The plate was coated with 25 μl/well biotinylated coating peptide dissolved in assay buffer (50 mM PBS with BSA (1% w/v), Tween-20 (0.1% w/v) and bronidox (0.36% v/v), 8 g/L NaCl, pH 7.4) to a concentration at 2 ng/ml and incubated for 60 minutes at 20° C. with shaking (750 rpm) in darkness. Next, 25 μl/well selection peptide, assay controls or pre-diluted serum/plasma sample (1:2) were added followed by immediately addition of 25 μl/well of SULFO-TAG (MSD GOLD SULFO-TAG NHS-Ester Conjugation, Meso Scale Discovery, cat. no. R31AA-1) labelled monoclonal antibody diluted in assay buffer to a final concentration at 25 ng/ml and the plate incubated 20 hours at 4° C. with shaking (300 rpm) in darkness.

[2] = target: T1, Recombinant type IV collagen alpha2 chain, undigested (without protease) (UniProt P08572 184-1712); assay: competitive C4-aa^1355 ECLIA on the collagen sample
T1 construct: Bought recombinant protein; also called non-digested type IV collagen; type IV collagen α2 chain
Description: (§1) During assay development, an optimal incubation buffer, time, temperature and concentrations of antibody and coating peptide were determined and the finalized competitive C4-aa¹³⁵⁵ ECLIA protocol was as follows: A MSD GOLD 96-well streptavidin pre-coated plate (Meso Scale Discovery, cat. no. L15SA-1) was incubated with 150 μl/well blocking buffer (10 mM phosphate-buffered saline (PBS) with bovine serum albumin (BSA) (5% w/v) and bronidox (0.36% v/v), 8 g/L NaCl, pH 7.4) for 60 minutes at 20° C. with shaking (300 rpm) in darkness. […] Finally, 150 μl/well of MSD GOLD Read Buffer (Meso Scale Discovery, cat. no. R92TG-2) was added and the plate was read immediately within 2 minutes in a Sector Imager 6000 (Meso Scale Discovery). SULFO-TAG enabled light emission when electricity was applied, and the light emission data was analyzed using the MSD Discovery Workbench 4.0 software. The analyte concentration was calculated using a 4-parametric curve fit model.
To confirm that the C4-aa¹³⁵⁵ antibody/assay recognized a protease generated type IV collagen neo-epitope, C4-aa¹³⁵⁵ was measured in non-digested, MMP-9 digested and GzB digested type IV collagen.

[3] = target: B2; assay: preliminary competitive ELISA, biotinylated coating peptide on streptavidin plates
Description: Female Balb/C mice of 6-7 weeks of age were immunized subcutaneously with 200 μl emulsified antigen containing 100 μg immunogenic peptide ([…]-GGC-KLH) with Stimune Immunogenic adjuvant (Thermo fisher, cat. no. 7925000) repeatedly every second week until stable titer levels were obtained. The mouse with the highest antibody titer rested for four weeks and was then boosted intraperitoneally with immunogenic peptide. After three days, splenocytes were isolated and fused with murine SP2/0 myeloma cells to produce hybridoma cells as previously described (17). The hybridoma cells were cultured in 96-well microtiter plates and limited dilution was used to secure monoclonal growth. Supernatants from the monoclonal antibody producing hybridoma cells were screened for reactivity against the selection peptide and human serum samples in a preliminary competitive ELISA using biotinylated coating peptide on streptavidin-coated microtiter plates (Roche, cat. no. 11940279). The clone with the best reactivity towards the selection peptide was purified using protein-G-columns according to the manufacturer's instructions (GE Healthcare Life Sciences, cat. no. 17-0404-01).

[4] = target: T2, Non-sense coating peptide LLARDFEKNY-K-biotin; assay: ECLIA with the non-sense coating peptide on the streptavidin plate
T2 construct: also called non-sense biotinylated peptide
T2 peptide: LLARDFEKNYK(Biotin)
Description: The target sequence was used as the selection peptide ([…] (SEQ ID No. 1)). The immunogenic peptide ([…]-GGC-KLH) was generated by covalently linking the selection peptide to Keyhole Limpet Hemocyanin (KLH) carrier protein with addition of glycine and cysteine residues in between to ensure right linking. A biotinylated peptide ([…]-K-biotin) was used as a coating peptide. The specificity of the antibody was tested by including an elongated peptide ([…] (SEQ ID No. 7)), a truncated peptide ([…] (SEQ ID No. 3)), a non-sense selection peptide ([…] (SEQ ID No. 18)) and a non-sense coating peptide ([…]-K-biotin). […] Antibody specificity was calculated as percentage of signal inhibition of two-fold diluted peptides.
During assay development, an optimal incubation buffer, time, temperature and concentrations of antibody and coating peptide were determined and the finalized competitive C4-aa¹³⁵⁵ ECLIA protocol was as follows: A MSD GOLD 96-well streptavidin pre-coated plate (Meso Scale Discovery, cat. no. L15SA-1) was incubated with 150 μl/well blocking buffer (10 mM phosphate-buffered saline (PBS) with bovine serum albumin (BSA) (5% w/v) and bronidox (0.36% v/v), 8 g/L NaCl, pH 7.4) for 60 minutes at 20° C. with shaking (300 rpm) in darkness. […]

[5] = target: B1; assay: competitive C4-aa^1355 ECLIA, peptide in solution against the biotinylated coating peptide
Description: as §1, with “darkness. The plate was coated with 25 μl/well biotinylated coating peptide dissolved in assay buffer (50 mM PBS with BSA (1% w/v), Tween-20 (0.1% w/v) and bronidox (0.36% v/v), 8 g/L NaCl, pH 7.4) to a concentration at 2 ng/ml and incubated for 60 minutes at 20° C. with shaking (750 rpm) in darkness.” for “darkness.”

T1 sequence (P08572 184-1712): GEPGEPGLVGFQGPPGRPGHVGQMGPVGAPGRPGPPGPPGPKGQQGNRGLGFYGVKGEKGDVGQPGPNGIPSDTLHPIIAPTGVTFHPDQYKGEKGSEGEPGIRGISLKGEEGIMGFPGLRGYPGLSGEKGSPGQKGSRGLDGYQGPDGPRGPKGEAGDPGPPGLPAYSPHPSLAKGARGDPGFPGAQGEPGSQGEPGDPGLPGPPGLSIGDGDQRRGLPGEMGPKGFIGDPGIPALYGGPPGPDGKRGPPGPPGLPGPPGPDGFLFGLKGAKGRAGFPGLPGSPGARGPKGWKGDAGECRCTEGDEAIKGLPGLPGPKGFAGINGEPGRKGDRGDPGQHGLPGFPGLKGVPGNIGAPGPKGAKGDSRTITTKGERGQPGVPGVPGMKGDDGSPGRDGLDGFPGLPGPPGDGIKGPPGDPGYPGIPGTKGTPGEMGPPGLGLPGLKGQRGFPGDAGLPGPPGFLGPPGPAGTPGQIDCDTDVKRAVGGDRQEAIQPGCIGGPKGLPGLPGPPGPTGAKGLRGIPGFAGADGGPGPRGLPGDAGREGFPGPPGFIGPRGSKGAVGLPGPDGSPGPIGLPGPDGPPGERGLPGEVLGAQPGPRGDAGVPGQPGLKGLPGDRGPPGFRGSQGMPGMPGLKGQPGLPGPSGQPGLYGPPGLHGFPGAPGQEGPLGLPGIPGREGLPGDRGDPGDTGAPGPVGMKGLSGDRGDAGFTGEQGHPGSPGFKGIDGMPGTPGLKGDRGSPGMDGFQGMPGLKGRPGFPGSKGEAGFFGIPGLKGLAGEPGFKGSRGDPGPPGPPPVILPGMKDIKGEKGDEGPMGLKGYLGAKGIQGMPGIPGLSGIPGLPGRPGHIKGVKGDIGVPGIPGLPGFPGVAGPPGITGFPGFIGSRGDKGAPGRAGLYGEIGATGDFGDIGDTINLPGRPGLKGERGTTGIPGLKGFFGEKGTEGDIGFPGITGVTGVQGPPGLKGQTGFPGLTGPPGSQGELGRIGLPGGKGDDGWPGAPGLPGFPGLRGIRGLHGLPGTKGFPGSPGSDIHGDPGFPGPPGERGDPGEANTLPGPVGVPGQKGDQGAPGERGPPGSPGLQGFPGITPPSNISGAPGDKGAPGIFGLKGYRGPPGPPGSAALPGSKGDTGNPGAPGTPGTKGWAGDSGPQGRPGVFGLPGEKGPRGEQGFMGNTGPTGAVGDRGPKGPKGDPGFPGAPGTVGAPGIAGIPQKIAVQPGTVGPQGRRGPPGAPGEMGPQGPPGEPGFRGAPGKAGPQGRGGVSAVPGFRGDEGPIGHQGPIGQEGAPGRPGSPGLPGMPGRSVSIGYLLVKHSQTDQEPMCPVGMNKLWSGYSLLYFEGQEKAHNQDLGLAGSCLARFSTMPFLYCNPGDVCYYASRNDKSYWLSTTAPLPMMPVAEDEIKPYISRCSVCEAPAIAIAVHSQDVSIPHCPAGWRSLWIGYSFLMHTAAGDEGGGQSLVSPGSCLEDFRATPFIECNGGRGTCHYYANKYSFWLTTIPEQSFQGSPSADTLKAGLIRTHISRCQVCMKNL

Q: Does GNTGPTGAV [Truncated peptide GNTGPTGAV] bind [1]?
A: no binding

Q: Does LLARDFEKNY [Non-sense selection peptide LLARDFEKNY] bind [1]?
A: no binding

Q: Does FMGNTGPTGAV [Elongated peptide FMGNTGPTGAV] bind [1]?
A: no binding

Q: Which results are given for B1?
A: binding result [2]: no binding; binding result [3]: binds; binding result [4]: no binding

Q: Does B2 bind [5]?
A: binds

Q: Does MGQTGPTGAV (also called Deselection 1) [Deselection peptide 1 MGQTGPTGAV] bind [1]?
A: no binding (tested: 0-30 ng/ml)

Q: Does QGNTGPTGAV (also called Deselection 3) [Deselection peptide 3 QGNTGPTGAV] bind [1]?
A: no binding (tested: 0-30 ng/ml)

From patent US20230030529A1 (NORDIC BIOSCIENCE A S, published 2023)
